The record followed here is the nanobody polyreactivity screen of Harvey et al. (2022).

The nature of this data set: yeast display, Sf9 membrane polyspecificity reagent, FACS + sequencing; frameworks hold sequencing errors. In outline:
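Galactose induction of a Saccharomyces cerevisiae BJ5465 synthetic nanobody display library ran 36–48 hours. The cells were then stained for 1 hour at 4 °C with 10% biotinylated, detergent-solubilized Sf9 membrane reagent, pulled down on streptavidin microbeads and FACS-sorted into low and high (top ~1%) gates on expression and reagent-binding fluorescence. Labels for polyreactivity follow the gate of origin.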
For “QVQLVESGGGLVQAGGSLRLSCAASGRTFIWYAMGWYRQAPGKERELVAAISYSGASTYYADSVKGRFTNSRDNAKNTVYLQMNSLKPEDTAVYYCYPLGTYSYDYWGQGTQVTVSS”, the “polyreactivity (PSR sort gate)” value is “high polyreactivity”.

As for “QVHIVESGAGLVQAGGSLRLSCAASGSIFRYNAMGWYRQAPGKEREFVAAITYSGGSTYYADSVTGRFTISRDNAKNTLFLQMNSLKPEDTAVYYCAAGYCSRGSRDGYWGQGTQVSVSS”, the “polyreactivity (PSR sort gate)” value is recorded as “low polyreactivity”.

Take “QVQLVESGGGLVQAGGSLRLSCAASGLTFRYYAMGWYRQAPGKERELVAAITASVGSTYYADSVKGRFTISRDNAKNTVYLQMNSLKPEDTAVYYCAAEGTPGPGGGYYWGQGTQVTVSS”: the “polyreactivity (PSR sort gate)” value is given as “low polyreactivity”.

“QVQLVESGGGLVQAGGSLRLSWAASGSILLGYAMGWYRQAPGKERELVAAISRNGGSTYYADSVKGRFTISRDNAKNTVYLQMNSLKPEDTAVYYCNKYSGYKGTDGGDYWGQGTQVTVSS”: the “polyreactivity (PSR sort gate)” value is “low polyreactivity”.

Consider “QVHLVESGGGLGHAGGSLLLSCAASGSIFGRNAMGWYRQAPGKERELVADIWNGGSTYYADSVKGRFTISRDNAKNTVYLQMNILKPEDTAVYYCNADANDDGRFGGYIKYDYWGQGTQVTVSS”, for which the “polyreactivity (PSR sort gate)” value is “low polyreactivity”.

Take “QVQLVESGGGLVQAGGSLRLSCAASGLIFHRNAMGWYRQAPGTERELVAAITKTGGGTYYADSVKGRFTISRDNAKNTVYLQMNSLKPEDTAVYYCAADTQRTFYYWGQGTQVTVSS”: the “polyreactivity (PSR sort gate)” value was “low polyreactivity”.

As to “QVQLVESGGGLVQAGGSLRLSGAASGRIFYYNTMGWYRQAPGKEWEVVAAISSTAYTTYADSVKGRFTISRDNAKNTVYLQMYSLKPEDTAVYYCAAYRYSRYRQRYNYWGQGTQVTVSS”, the “polyreactivity (PSR sort gate)” value is “high polyreactivity”.

For the sequence “QVQLVESGGGLVQAGGSLRLSCAASGRTFVSYAMGWYRQAPGKERELVADITIGGSTNYADSVKGRFTISRDNAKNTVYLLMNSLKPEDTAVYDCAAYYSYPWDTVTTVDLYDYWGQGTQVTVSS”, the “polyreactivity (PSR sort gate)” value is listed as “low polyreactivity”.

For the sequence “QVQLVESGGGLVQAGGSLRLSCAASGGTFFVYAMGWSRPAPGKERELVAAISGSGGRTYYADSVKGRFTISRDNAKNTVYLQMNSLTPEDTAVYYCNATYLTRSTRLSDFDYWGQGTQVTVSS”, the “polyreactivity (PSR sort gate)” value is reported as “high polyreactivity”.

For “QVQLVESGGGLVQAGGSLRLSCAASGRTFYTYTMGWYRQAPGKERELVAAISKSGTSTYYADSVKGRFTISRDNAKNTVYLQMNSLKPEDTAVYYCAARAYYARFLMGYWGQGTQVTVSS”, the “polyreactivity (PSR sort gate)” value was “high polyreactivity”.

“QVQLVESGGGLVQAGGSLRLSCAASGSTFGRYVMGWYRQAPGKDRELVAAISKNAGSTYYADSVKGRFTISRDNAKNTVYLQMNSLKPEDTAVYYCAADWRTKGYDSLGQGTQVTVSS”: the “polyreactivity (PSR sort gate)” value is “high polyreactivity”.

On to “QVQLVESGGGLVQAGGSLRLSCAASGSIFNSNAMGWYRQAPGKERELVAAITGSGGRTYYADSVKGRFTISRDNAKNTVYLQMNSLKPEDTAVYYCNAVTYSRRYAYYYWGQGTQVTVSS”, for which the “polyreactivity (PSR sort gate)” value is “high polyreactivity”.

As to “QFQLVESGGGLVQAGGSLRLSCAASGSIFYTYVMGWYRQAPGKERELVAVISWSSTSTYYADSVKGRFTISRDNAKNTVYLQMNSLKPEDTAVYYCAAGVHRYRPGHGYDDGGYYWGQGTQVTVSS”, the “polyreactivity (PSR sort gate)” value is on record as “low polyreactivity”.

Take “QVQLVESGGGLVQAGGSLRLSCAASGSISGYYDMGWYRQAPGKERELVAASSWNGADTYYADSVKGRFTISRDNAKNTVYLQMNSLKPEDTAVYYCAAERENGDHYRYYYWGQGTQVNVSS”: the “polyreactivity (PSR sort gate)” value is “low polyreactivity”.

As to “QVQLVESGGRLFQAGGSLRLSCAACGFTIPYYAMRWYRKAPGKERELVAAIDWTGGSTYYADSVKGRFTISRDKAKNTVYLQMNSRKPEETEVYYCAREVDYSISSPTPPVVELDYWGQGTQVTVSS”, the “polyreactivity (PSR sort gate)” value is on record as “low polyreactivity”.

With “QVQLVESGGGLVQAGGSLRLSCAASGFIFYTYAMGWYRQAPGKERELVAAIRRGGSTYYADSVKGRFTISRDNAKNTVYLQMNSLKPEDTAVYYCNARIPYKAKTNHFGYWGQGTQVTVSS”, the “polyreactivity (PSR sort gate)” value is given as “high polyreactivity”.

As for “QVQLVESGGGLVQAGGSLRLSCAASGSIFRGYAMGWYRQAPGKERELVAAITSSGGSTNYADSVKGRFTISRDNAKNTVYLQMNSLKPEDTAVYYCAKAPGLWHLIQRMDYWGQVTQVTVSS”, the “polyreactivity (PSR sort gate)” value is on record as “low polyreactivity”.

“QVQLVETGVGLVQAGGILRLSCAASGSTFTNNGIGWYRQAPGKEREVVATNSWDGDSTYYAYSVKGRFSISRDTAKNTVYLQMNSLKPEDTAVYYCAADEWGSDSALNFEYWGQGTQVTVSS”: the “polyreactivity (PSR sort gate)” value was “low polyreactivity”.

For the sequence “QVQLVESGGGLVQAGRSLRLTCAASGFTFADNTMGWYRQAPGKDRELVAAINDAGGTNYADSVKGRFTISRDNEKNTVYLQMNSLKAEDTAVYYCAADGRIYLTYHEMEYWGQGTQVTVSS”, the “polyreactivity (PSR sort gate)” value is “low polyreactivity”.

Consider “QVQLVESGGGLVQAGGRLRLSCAASGFTFAYYAMGGNRQSPGKERELVAAISSGGGSTYYADSEKGRFTISRDNAKNTVYLQMNSQKPEDTAVYYCAAESCSPQAWFDYWGQGTQVTVSS”, for which the “polyreactivity (PSR sort gate)” value is given as “high polyreactivity”.

Take “QVQLVESGGGLVQAGGSLRLSCAASGFTFNSYVMGWSRQAPGKERELVAAITRSGDRTYYADSVKGRFTISRDNAKNTVYLQMNSLKPEDTAVYYCAATWSKNYYGWYYYWGQGTQVTVSS”: the “polyreactivity (PSR sort gate)” value is on record as “high polyreactivity”.

Turning to “QVQLQESGGGLVQAGGSLRLSCAASGYISQSSVMGWYRQASGKEREFVASISYGATTYYADSVKGRFTISRDNAKNTVYLQTNSPKPEDTAVYYCAVWVKRGFSHRYWGQGTQVTVSS”, the “polyreactivity (PSR sort gate)” value was “high polyreactivity”.

Turning to “QVQLVESGGGLVHAGGSLRLSCAASGLISYRYAMGWYRQAPGKERELVAAISWRGGSTYYADSVKGRFTISRDNAKNTVYLQMNSLKPDDTAVYYCNALGLGLFDYWGQGTQVTVSS”, the “polyreactivity (PSR sort gate)” value is recorded as “high polyreactivity”.

Turning to “QVQLVESGGGLVQAGGSLRLSCAASGSIFGYNARGWYRQAPGKERELVATINWSGTSTYYAASVKGRFTISRDNAKNTVYLQMNSLKPVDTAVYYCNAKYLWYGRYNYWGQGTQVTVSS”, the “polyreactivity (PSR sort gate)” value was “high polyreactivity”.

As to “QVQLVESGGGLVQAGGSLRLSCAASGFIITGNPMGWYRQAPGKERELVAAITSGGNTYYADSVKGRFTISRDNANNTVYLQMNSLKPEDTAVYYCAKYVPHWRILMEYWGQGTQVTVSS”, the “polyreactivity (PSR sort gate)” value is recorded as “low polyreactivity”.

For the sequence “QVQLVESGGGLVQAGGSLRLSCAASGSTLVTYAMGWYRQAPGKERELVAAISWRGGSTYYADSVKGRFTISRDNAKNTVYLQMNSLKPEDTAVYYCIKLRAYKESETYYYWGQGTQVTVSS”, the “polyreactivity (PSR sort gate)” value is “low polyreactivity”.

Take “QVQLVESGGGLVQAGGSLRLSCAGSGSTFHPYAMGWYRQAPGKVRELVAAITWGGGSTYYADSVKGRITISRDNAKNTVYLQMNSLKPEDTAVYYCNAYTLYWPDYDYWGQGTQVTVSS”: the “polyreactivity (PSR sort gate)” value is listed as “low polyreactivity”.

Turning to “QVQLGESGGGLLQAGGSVRLSCAASGRTITANAMGLYRQAPGKERELFATISTRGGRTYYADSVKGRFTISRDNSKNTVYLQMHSLKPEETAVFYGAFTIRAKYTLKEDYWGQGTQVTVSS”, the “polyreactivity (PSR sort gate)” value is on record as “low polyreactivity”.

In the case of “QVQLVESGGGLVQAGGSLRLSCAASGLTFDYYAMGWSRQAPGKERELVAAITSSGGRTYYADSVKGRFTISRDNAKNTVYLQMNSLKPEDTAVYYCAKRDSYYNGVGYWGQGTQVTVSS”, the “polyreactivity (PSR sort gate)” value is “low polyreactivity”.

Consider “QVQLVESGGGLVQAAGSLRLSCAASGSIAMGWYRQAPGKERELVATISSSGGSTYYADSVKGRFTISRDNAKNTVYLQMNSLKPEDTAVYYCAAGGYTLYHAWGYYWGQGTQVTVSS”, for which the “polyreactivity (PSR sort gate)” value is on record as “low polyreactivity”.

Take “QVQLQESGGGLVQAGGRLRLSCAASGNIFEADIMGWYNKAQGKERELVASITDGGSTNYADSVKGRFTINRYNAKNNVYLQMNSLKPEDTAVYYCAAIAYPDIPTYFDYDSDYFYWGQGTQVTVSS”: the “polyreactivity (PSR sort gate)” value was “high polyreactivity”.

Take “QVQLVESGGRLVQAGGSLRLSCAASGFILLAYAMGWYRQAHGKERELVAAITSGGSTHYADSVKGRFTISRDNAKNTVYLQMNSLKPEDTAVYYCAKDTVFRYSGNTYGYWGQGTQVTVSS”: the “polyreactivity (PSR sort gate)” value is recorded as “low polyreactivity”.

Turning to “QVQLVESGGGLVQAGGSLRLSCAASGITFNYYAMGWYRQAPGKEREFVAAITRSGGRTYYADSVKGRFTISRDNAKNTVYLQMNSLKPEDTAVYYCAAGYYILYIWKFDYWGQGTQVTVSS”, the “polyreactivity (PSR sort gate)” value is on record as “high polyreactivity”.

Regarding “QVQLVESGGGLVQAGGSLRLSCAASGITFGRNTMGWYRQAPRKERELVAAIDSGGNTYADSVKGRFTISRDNAKNTVYLQMNSLKPEDTAVYYCAVDGGEFSSYGYWGQGTQVTVSS”, the “polyreactivity (PSR sort gate)” value is “low polyreactivity”.

On to “QVQLVESGGGLVQAGGILRLSCAASGFIFVDYSMGWYREAPAKESQLVAAISGRDGSTYYADSVKGRFTISRDNAKNTVYLQMNSLKPEDTAVYYCAADRIHSGTLYDYDYWGQGTQVTESS”, for which the “polyreactivity (PSR sort gate)” value is “low polyreactivity”.

Consider “QVQLVESGGGLVQAGGSLRLSCAASGSIFYLYAMGWYRQAPGKERELVAAISSSGGRTYYADSVKGRFTISRDNAKNTVYLQMNSLKPEDTAVYYCAARYWAKYSYGYWGQGTQVTVSS”, for which the “polyreactivity (PSR sort gate)” value was “high polyreactivity”.

For the sequence “QVQLQESGGGLVQAGGSLRLSCAASGHISIKLQRGWYRAAPGKERELVATINLGAITYYADSVKGLITNSRDNAKNTVYLQLNSLKPEDTAVYYCAARWRSGFTSGDYWGQGTQVTVSS”, the “polyreactivity (PSR sort gate)” value was “low polyreactivity”.

As to “QFQLVESGGGLVQAGASLRLSCAASGSTFVRYAMGWYRQAPGKERDLVAAITWTGGITYYADSVKGRFTISRDNAKNTVYLHMNSLKPEDTAVYYCIAEQKQYEKSYDYWGQGTQVTVSS”, the “polyreactivity (PSR sort gate)” value is given as “low polyreactivity”.

With “QVQLVESGGGLVQAGGSLRLSCAASGIIFYGYAMGWYRQAPGKERDLVAAISSGGGTNYADSVKGRFTISRDNAKNTVYLQMNSLIPEDTAVYYCASRQYRRVKQGNYWGQGTQVTVSS”, the “polyreactivity (PSR sort gate)” value is listed as “high polyreactivity”.

As to “QVQLVESGGGLDQAGGSLRLSCAASGLIFKLYDMGWSRQAPGKERELVATISRGTSTYYADSVKGRFTISRDNAKNTVDLQMNSLKPEDTAVYYCNARLDYGRAFPLFKYISGMYYWGQGTQVTVSS”, the “polyreactivity (PSR sort gate)” value was “low polyreactivity”.

Turning to “QVQLVESGGGLVQAGGSLRLSCAASGSTFKRYAMGWYRQAHGKERELVAAISRRGGSTYYADSVKGRFTISRDNAKNTVYLQMNSLKPEDTAVYYCAARGTGNIYDYWGQGTQVTVSS”, the “polyreactivity (PSR sort gate)” value is “high polyreactivity”.
